From article PMC2752207 (Biomaterials, 2009)
Bridge positions count the residues as written; N and C are the ends. Ends that are not written are not given here. * marks the point of attachment. Acryloyl = C=CC(=O)*

B1: acryl-(FITC)WP9QY (peptide)
peptide: KYCWSQYLCY
modifications: N-terminus acrylated (acrylic acid); FITC conjugated to the additional lysine; intramolecular disulfide bond

How the values were obtained:
recombinant human TNF-α = recombinant human TNF-α (human, UniProt P01375 77-233); assay: uptake of the cytokine into peptide-functionalised hydrogels
[1] = target: AlexaFluor555-labeled TNFα (human, UniProt P01375 77-233, AlexaFluor 555 label (protein labeling kit; sites not stated)); assay: FRET or BRET
AlexaFluor555-labeled TNFα, sequence (P01375 77-233): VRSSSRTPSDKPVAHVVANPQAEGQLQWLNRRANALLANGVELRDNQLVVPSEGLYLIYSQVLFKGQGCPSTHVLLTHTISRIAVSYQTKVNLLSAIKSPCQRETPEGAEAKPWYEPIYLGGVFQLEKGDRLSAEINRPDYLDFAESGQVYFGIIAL

recombinant human TNF-α, sequence (P01375 77-233): as above

| Binder | binding result (recombinant human TNF-α) | binding result [1] |
| --- | --- | --- |
| Acryloyl-YCWSQYLCY (disulfide 2-8 (inferred)) [acryl-WP9QY] | binds |  |
| B1 |  | binds |
